Test results reported in the supplement of paper PMC10567573.

B1: FBF1 (parent)
chain: YQRPQDSEDMWGDEDFTFGAYQPT
B2: PRPH (parent)
chain: DEIEFLKKLHEEELRDLQVSVESQ

Variants of: B1
Assay: protein stability index of a GFP-peptide fusion (GPS, HEK-293T) (PSI 1-6); higher = more stable
Conditions: c terminus: a fixed tail appended
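Also: lentivirally expressed fusions sorted by FACS into six bins by GFP to DsRed ratio, PSI derived from sequencing read proportions per bin multiplied by bin number.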

Variant | protein stability index
T24Q | 2.68
T24Y | 2.44
T24V | 2.63
T24R | 2.38
T24P | 3.17
T24S | 2.67
T24W | 1.99

Variants of: B2
Assay: as above
Conditions: c terminus: a fixed tail appended

Variant | protein stability index
V21D | 5.43
V21P | 4.95
V21C | 4.98
V21S | 4.75
V21R | 4.39
V21G | 4.92
V21I | 4.13
V21T | 4.96
V21N | 5.29
V21F | 4.43
V21K | 5.06
V21Y | 4.07
V21W | 4.36
V21H | 5.09
V21M | 4.45
L6C | 5.09
L6H | 5.21
L6G | 5.07
L6D | 5.56
L6E | 5.18
L6Q | 5.54
L6W | 4.61
L6P | 5.33
L6A | 5.48
L6V | 4.46
L6T | 5.13

Variant | protein stability index
L6M | 4.89
L6K | 4.99
L6S | 5.12
L6Y | 4.72
H10A | 4.42
H10M | 3.88
H10R | 4.87
H10L | 2.52
H10N | 4.16
H10F | 3.47
H10I | 3.37
H10P | 5.1
H10S | 5.18
H10G | 4.64
H10E | 5.23
H10W | 3.54
H10V | 3.52
H10C | 4.56
H10K | 4.78
H10Q | 5.03
H10Y | 4.18
K7P | 5.04
K7R | 4.59
K7A | 4.11
K7G | 4.52
K7Q | 4.61

Variant | protein stability index
K7S | 3.85
K7H | 4.21
K7I | 2.03
K7N | 5.18
K7T | 3.15
K7V | 2.59
I3W | 4.41
I3D | 5.68
I3H | 5.24
I3Y | 4.8
I3L | 4.84
I3Q | 5.08
I3F | 4.88
I3G | 5.05
I3A | 5.36
I3T | 5.25
I3N | 5.46
I3M | 4.96
I3C | 5.09
E22Q | 4.37
E22H | 4.5
E22I | 3.29
E22C | 4.93
E22N | 4.48
E22W | 3.29
E22Y | 3.75

Variant | protein stability index
E22M | 4.27
E22D | 4.99
E22V | 4.18
E22K | 4.69
E22R | 4.3
E22T | 4.72
E22S | 4.74
E22A | 4.47
E22G | 4.3
E22P | 5.25
F5T | 5.1
F5M | 5
F5N | 4.9
F5V | 4.95
F5C | 5.15
F5R | 4.79
F5D | 5.27
F5Q | 5.41
F5S | 5.07
F5P | 5.22
F5A | 4.69
F5I | 4.92
F5K | 4.73
S23G | 5.13
S23R | 4.62
S23L | 4.54

Variant | protein stability index
S23T | 4.95
S23F | 4.36
S23E | 4.67
S23Q | 4.11
S23A | 4.04
S23M | 3.96
S23D | 5.04
S23V | 4.59
S23K | 4.5
S23N | 5.04
S23Y | 4.71
S23I | 3.8
Q18K | 4.63
Q18L | 3.89
Q18D | 5.27
Q18T | 5.36
Q18W | 3.39
Q18M | 4.37
Q18S | 5.08
Q18A | 4.46
Q18P | 5.3
Q18C | 4.86
Q18R | 4.62
Q18H | 4.69
Q18I | 4.4
Q18N | 5.11

Variant | protein stability index
S20E | 5.75
S20Q | 4.86
S20D | 4.54
S20I | 4.27
S20F | 3.97
S20H | 4.91
S20N | 4.83
S20W | 4.45
S20C | 5.06
S20Y | 4.45
S20L | 4.2
S20A | 4.78
S20K | 4.75
S20P | 4.96
S20M | 4.81
R15A | 5.18
R15I | 4.79
R15W | 3.91
R15K | 4.59
R15C | 4.53
R15Y | 4.58
R15F | 4.15
R15M | 4.58
R15T | 4.51
R15P | 4.98
R15N | 4.91

Variant | protein stability index
R15V | 4.94
R15H | 4.39
E4C | 3.93
E4S | 4.93
E4V | 4.21
E4L | 4.15
E4W | 3.18
E4Y | 3.9
E4K | 4.18
E4M | 4.53
E4A | 4.36
E4N | 4.91
E4Q | 4.34
E4G | 4.57
L17I | 4.97
L17K | 4.81
L17S | 4.9
L17D | 5.25
L17A | 5.15
L17V | 5.02
L17C | 4.92
L17R | 5.06
L17H | 4.6
L17N | 4.45
L17T | 5.06
L17P | 5.16

Variant | protein stability index
L17E | 4.98
L17M | 4.97
L17G | 5.21
E13G | 4.83
E13T | 4.05
E13D | 4.97
E13K | 5.25
E13H | 4.45
E13I | 2.74
E13N | 4.97
E13Q | 4.65
E13M | 3.46
E13L | 3.27
V19W | 5.12
V19D | 5.58
V19R | 5.06
V19Y | 4.56
V19K | 5
V19Q | 5.01
V19I | 5.18
V19S | 4.6
V19G | 5.15
V19F | 4.39
V19H | 5.27
V19A | 5.23
L9N | 5.34

Variant | protein stability index
L9I | 4.88
L9P | 5.52
L9R | 5.29
L9D | 5.27
L9A | 5.02
L9C | 4.9
L9T | 5.3
L9M | 4.82
L9V | 5.01
L9Q | 4.98
L9S | 5.4
L9Y | 4.44
L9H | 5.29
L9F | 4.65
L9W | 4.38
Q24M | 4.64
Q24G | 4.48
Q24I | 4.35
Q24N | 4.92
Q24C | 3.37
Q24Y | 3.64
Q24T | 4.76
Q24W | 3.85
Q24S | 4.26
Q24K | 4.65
Q24L | 4.66

Variant | protein stability index
Q24E | 4.57
D1W | 3.97
D1V | 4.31
D1L | 4.63
D1T | 4.71
D1Q | 3.77
D1Y | 4.32
D1S | 4.64
D1K | 3.95
D1C | 3.41
D1N | 4.78
D1F | 4.07
D1P | 4.53
E11D | 4.94
E11W | 3.21
E11A | 4.29
E11N | 4.57
E11M | 3.99
E11P | 4.34
E11L | 4.11
E11F | 3.69
E11C | 4.09
E11R | 4.23
E11S | 4.52
E11Y | 2.95
E11V | 3.99

Variant | protein stability index
E11K | 4.92
K8M | 4.25
K8C | 3.8
K8N | 4.84
K8R | 4.61
K8V | 4.06
K8W | 3.45
K8H | 4.63
K8F | 3.94
K8A | 5.1
K8P | 5.23
K8D | 4.89
D16I | 3.82
D16L | 2.97
D16R | 3.96
D16F | 3.1
D16K | 4.94
D16G | 4.95
D16A | 4.6
D16P | 4.59
D16H | 4.67
D16Y | 3.49
D16S | 5.14
D16E | 4.31
D16C | 4.28
D16V | 4.34

Variant | protein stability index
D16M | 3.9
D16Q | 4.35
D16W | 3.15
E2N | 4.67
E2V | 2
E2K | 3.94
E2T | 2.98
E2P | 4.13
E2M | 2.05
E2S | 3.65
E2G | 3.56
E2C | 2.04
E2W | 1.69
E2F | 2.13
E2Q | 3.73
E2R | 4.39
E2H | 4.08
E2A | 2.22
E12W | 4.12
E12H | 4.64
E12P | 4.77
E12Y | 4.07
E12N | 4.5
E12T | 4.43
E12F | 4.07
E12S | 4.67

Variant | protein stability index
E12D | 4.41
E12Q | 4.53
E12L | 4.04
E12M | 4.33
E12A | 4.69
L14Q | 4.84
L14S | 5.18
L14A | 4.95
L14V | 5.27
L14P | 4.71
L14N | 5.08
L14M | 5.02
L14G | 5.14
L14I | 4.66
L14F | 4.24
